Test results published in IntAct's records for PubMed 23706744.

B1: Protein arginine N-methyltransferase 1 (Saccharomyces cerevisiae), P38074 (parent)
chain: MSKTAVKDSATEKTKLSESEQHYFNSYDHYGIHEEMLQDTVRTLSYRNAIIQNKDLFKDKIVLDVGCGTGILSMFAAKHGAKHVIGVDMSSIIEMAKELVELNGFSDKITLLRGKLEDVHLPFPKVDIIISEWMGYFLLYESMMDTVLYARDHYLVEGGLIFPDKCSIHLAGLEDSQYKDEKLNYWQDVYGFDYSPFVPLVLHEPIVDTVERNNVNTTSDKLIEFDLNTVKISDLAFKSNFKLTAKRQDMINGIVTWFDIVFPAPKGKRPVEFSTGPHAPYTHWKQTIFYFPDDLDAETGDTIEGELVCSPNEKNNRDLNIKISYKFESNGIDGNSRSRKNEGSYLMH
B2: Protein arginine N-methyltransferase 1 (Saccharomyces cerevisiae), P38074 (parent)
chain: B1 chain
partner: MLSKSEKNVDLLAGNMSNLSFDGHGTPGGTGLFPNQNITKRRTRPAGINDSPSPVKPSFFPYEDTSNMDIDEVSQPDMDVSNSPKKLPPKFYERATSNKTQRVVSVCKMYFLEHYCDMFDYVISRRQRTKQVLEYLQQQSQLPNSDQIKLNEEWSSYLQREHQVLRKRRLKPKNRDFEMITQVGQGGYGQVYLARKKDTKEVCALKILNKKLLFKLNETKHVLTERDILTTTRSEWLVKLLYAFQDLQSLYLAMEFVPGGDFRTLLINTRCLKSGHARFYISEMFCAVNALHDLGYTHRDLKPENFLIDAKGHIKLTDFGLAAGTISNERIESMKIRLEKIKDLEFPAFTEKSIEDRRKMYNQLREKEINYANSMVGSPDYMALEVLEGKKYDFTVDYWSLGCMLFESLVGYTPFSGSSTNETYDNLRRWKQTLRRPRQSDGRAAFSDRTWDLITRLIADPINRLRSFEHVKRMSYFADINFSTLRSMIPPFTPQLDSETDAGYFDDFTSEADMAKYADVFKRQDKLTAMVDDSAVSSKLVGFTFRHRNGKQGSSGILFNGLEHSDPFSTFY

Variants of: B1
Settings: with pp2a2_yeast PPH22, P23595
pp2a2_yeast PPH22, P23595, sequence (P23595 whole entry): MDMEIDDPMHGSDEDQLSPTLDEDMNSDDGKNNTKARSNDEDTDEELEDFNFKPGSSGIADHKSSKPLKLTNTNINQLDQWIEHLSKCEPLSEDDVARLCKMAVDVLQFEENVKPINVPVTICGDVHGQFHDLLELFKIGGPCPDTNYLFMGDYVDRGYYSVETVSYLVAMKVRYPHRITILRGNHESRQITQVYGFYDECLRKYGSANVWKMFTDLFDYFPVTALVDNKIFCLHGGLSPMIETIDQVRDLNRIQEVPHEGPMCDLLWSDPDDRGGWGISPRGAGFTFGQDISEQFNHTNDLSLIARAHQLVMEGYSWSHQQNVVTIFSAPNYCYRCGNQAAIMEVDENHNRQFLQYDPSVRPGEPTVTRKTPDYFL

Row | effect of a mutation on the interaction | Variant
1 | disrupting interaction strength | MSKTAVKDAATEKTKLSESEQHYFNSYDHYGIHEEMLQDTVRTLSYRNAIIQNKDLFKDKIVLDVGCGTGILSMFAAKHGAKHVIGVDMSSIIEMAKELVELNGFSDKITLLRGKLEDVHLPFPKVDIIISEWMGYFLLYESMMDTVLYARDHYLVEGGLIFPDKCSIHLAGLEDSQYKDEKLNYWQDVYGFDYSPFVPLVLHEPIVDTVERNNVNTTSDKLIEFDLNTVKISDLAFKSNFKLTAKRQDMINGIVTWFDIVFPAPKGKRPVEFSTGPHAPYTHWKQTIFYFPDDLDAETGDTIEGELVCSPNEKNNRDLNIKISYKFESNGIDGNSRSRKNEGSYLMH [S9A]

Variants of: B2
Settings: with dbf2_yeast DBF2, P22204

Row | effect of a mutation on the interaction | Variant
2 | disrupting interaction strength | MSKTAVKDAATEKTKLSESEQHYFNSYDHYGIHEEMLQDTVRTLSYRNAIIQNKDLFKDKIVLDVGCGTGILSMFAAKHGAKHVIGVDMSSIIEMAKELVELNGFSDKITLLRGKLEDVHLPFPKVDIIISEWMGYFLLYESMMDTVLYARDHYLVEGGLIFPDKCSIHLAGLEDSQYKDEKLNYWQDVYGFDYSPFVPLVLHEPIVDTVERNNVNTTSDKLIEFDLNTVKISDLAFKSNFKLTAKRQDMINGIVTWFDIVFPAPKGKRPVEFSTGPHAPYTHWKQTIFYFPDDLDAETGDTIEGELVCSPNEKNNRDLNIKISYKFESNGIDGNSRSRKNEGSYLMH [S9A]
